What all share (format): cell-based
Assay [1] has as its target T1, Rat GALR1 (Rattus norvegicus, UniProt Q62805).
T1 construct: linearized plasmids or PCR products containing the complete coding region of the genes; expressed in transfected cells; host or cells: Xenopus laevis oocytes (receptor cRNA injected)
T1 sequence (Q62805 1-346): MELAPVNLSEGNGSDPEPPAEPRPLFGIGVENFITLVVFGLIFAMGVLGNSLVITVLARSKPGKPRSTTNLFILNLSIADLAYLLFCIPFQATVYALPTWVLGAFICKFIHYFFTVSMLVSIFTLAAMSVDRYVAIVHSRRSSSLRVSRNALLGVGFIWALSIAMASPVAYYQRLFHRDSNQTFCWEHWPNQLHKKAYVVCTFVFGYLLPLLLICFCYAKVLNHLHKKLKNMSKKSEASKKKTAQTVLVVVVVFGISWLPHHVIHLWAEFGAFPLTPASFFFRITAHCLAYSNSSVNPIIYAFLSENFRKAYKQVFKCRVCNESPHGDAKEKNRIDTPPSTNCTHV
Put plainly: Cl- current recording in Xenopus oocytes expressing GPCR and chimeric G protein. The following applies: Xenopus oocytes expressing Rat GALR1 and chimera; mean ± s.e.m. The protocol:
(§1) Oocytes were harvested from Xenopus laevis and injected with mRNA transcripts as previously described (Quick and Lester, 1994; Smith et al., 1997). Receptor and chimeric G protein α subunit RNA transcripts were synthesized using the T7 polymerase (“Message Machine,” Ambion) from linearized plasmids or PCR products containing the complete coding region of the genes. Oocytes were injected with 5–25 ng synthetic receptor RNA and incubated for 3–8 days at 17 degrees. Three to eight hours prior to recording, oocytes were injected with 500 pg chimeric Gα subunit mRNA. Dual electrode voltage clamp (Axon Instruments Inc.) was performed using 3 M KCl-filled glass microelectrodes having resistances of 1–2 MOhm. Unless otherwise specified, oocytes were voltage clamped at a holding potential of −80 mV. During recordings, oocytes were bathed in continuously flowing (1–3 ml/min) medium containing 96 mM NaCl, 2 mM KCl, 1.8 mM CaCl2, 1 mM MgCl2, and 5 mM HEPES, pH 7.5 (ND96). Drugs were applied by local perfusion from a 10 μl glass capillary tube fixed at a distance of 0.5 mm from the oocyte. Experiments were carried out at room temperature. All values are expressed as mean±standard error of the mean.

The subject of assay [2] is GALR1, Y1, NPFF2, and 5HT1D. Put plainly: Cl- current recording in Xenopus oocytes, C. elegans versus human chimera. Here is the method: as §1
Assay [3] concerns the target T2, Rat Y5 (Rattus norvegicus, UniProt Q63634).
T2 construct: linearized plasmids or PCR products containing the complete coding region of the genes; expressed in transfected cells; host or cells: Xenopus laevis oocytes (receptor cRNA injected)
T2 sequence (Q63634 1-445): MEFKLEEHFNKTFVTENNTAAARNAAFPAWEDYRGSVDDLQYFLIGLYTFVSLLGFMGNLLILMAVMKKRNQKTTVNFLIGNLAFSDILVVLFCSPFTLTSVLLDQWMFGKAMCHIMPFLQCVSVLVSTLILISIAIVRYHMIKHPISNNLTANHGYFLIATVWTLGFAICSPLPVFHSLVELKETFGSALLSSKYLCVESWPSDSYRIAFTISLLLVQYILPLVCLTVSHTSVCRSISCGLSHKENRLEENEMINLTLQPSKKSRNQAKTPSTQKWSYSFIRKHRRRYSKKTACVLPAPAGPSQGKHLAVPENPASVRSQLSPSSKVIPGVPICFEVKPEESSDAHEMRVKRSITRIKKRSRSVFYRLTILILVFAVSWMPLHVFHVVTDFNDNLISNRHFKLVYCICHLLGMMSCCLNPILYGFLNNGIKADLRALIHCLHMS
As to the kind of experiment: Cl- current recording in Xenopus oocytes expressing GPCR and chimeric G protein. Conditions: Xenopus oocytes expressing Rat Y5 and chimera; mean ± s.e.m. Here is the method:
as §1

The values that follow come from patent publication US7067277B1, “Chimeric G proteins and uses thereof” (H. Lundbeck A/S, priority 1999, dated 2006).

B1: cGαq/z5: chimeric Gα subunit: C-terminal final 5 amino acids of C. elegans Gαq replaced with those of hGαz (SEQ ID NO: 1) (protein)
chain: MACCLSEEAREQKRINQEIEKQLQRDKRNARRELKLLLLGTGESGKSTFIKQMRIIHGQGYSEEDKRAHIRLVYQNVFMAIQSMIRAMDTLDIKFGNESEELQEKAAVVREVDFESVTSFEEPYVSYIKELWEDSGIQECYDRRREYQLTDSAKYYLSDLRRLAVPDYLPTEQDILRVRVPTTGIIEYPFDLEQIIFRMVDVGGQRSERRKWIHCFENVTSIMFLVALSEYDQVLVECDNENRMEESKALFRTIITYPWFTNSSVILFLNKKDLLEEKILYSHLADYFPEYDGPPRDPIAAREFILKMFVDLNPDADKIIYSHFTCATDTENIRFVFAAVKDTILQHNLKYIGLC
modifications: C. elegans
Regarding B1, the “Response amplitudes (nA) in oocytes” value in assay [1] was found to be 91 ± 38 nA. Moreover, in assay [2], the “increase in response over currents from oocytes expressing the human version of the chimera” value is 2–3 fold.

B2: cGαq/z9: C. elegans Gαq with Gαz portion of the C-terminal tail extended to 9 amino acids (SEQ ID NO: 2) (protein)
chain: MACCLSEEAREQKRINQEIEKQLQRDKRNARRELKLLLLGTGESGKSTFIKQMRIIHGQGYSEEDKRAHIRLVYQNVFMAIQSMIRAMDTLDIKFGNESEELQEKAAVVREVDFESVTSFEEPYVSYIKELWEDSGIQECYDRRREYQLTDSAKYYLSDLRRLAVPDYLPTEQDILRVRVPTTGIIEYPFDLEQIIFRMVDVGGQRSERRKWIHCFENVTSIMFLVALSEYDQVLVECDNENRMEESKALFRTIITYPWFTNSSVILFLNKKDLLEEKILYSHLADYFPEYDGPPRDPIAAREFILKMFVDLNPDADKIIYSHFTCATDTENIRFVFAAVKDTILQNNLKYIGLC
modifications: C. elegans
Turning to B2, in assay [3], the “Response amplitudes (nA) in oocytes” value was 65 ± 34 nA.
